Measurements from the supplement of paper PMC11908140.

B1: library; numbered along this chain (parent)
chain: MRKPRAAVGSGHRKQAASQEGRQKHAKNNSQAKPSACDGLARQPEEVVLQASVSSYHLFRDVAEVTAFRGSLLSWYDQEKRDLPWRRRAEDEMDLDRRAYAVWVSEVMLQQTQVATVINYYTGWMQKWPTLQDLASASLEEVNQLWAGLGYYSRGRRLQEGARKVVEELGGHMPRTAETLQQLLPGVGRYTAGAIASIAFGQATGVVDGNVARVLCRVRAIGADPSSTLVSQQLWGLAQQLVDPARPGDFNQAAMELGATVCTPQRPLCSQCPVESLCRARQRVEQEQLLASGSLSGSPDVEECAPNTGQCHLCLPPSEPWDQTLGVVNFPRKASRKPPREESSATCVLEQPGALGAQILLVQRPNSGLLAGLWEFPSVTWEPSEQLQRKALLQELQRWAGPLPATHLRHLGEVVHTFSHIKLTYQVYGLALEGQTPVTTVPPGARWLTQEEFHTAAVSTAMKKVFRVYQGQQPGTCMGSKRSQVSSPCSRKKPRMGQQVLDNFFRSHISTDAHSLNSAAQ

Variants of: B1
Experiment: 8OG:A repair function score (normalized; synonymous = 0, nonsense = -1) (normalized log-likelihood score); higher = more repair activity (WT-like)
Settings: with 8OG:A DNA repair reporter (GFP) in HEK-293 MUTYH KO cells
Protocol: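 Saturation mutagenesis (NNN codon scan) of the MUTYH cDNA (521-aa nuclear isoform NM_001048174.1 / NP_001041639), stably expressed under doxycycline induction in HEK-293 MUTYH knockout cells. Cells were co-transfected with an 8OG:A-bearing GFP repair reporter plus mCherry and sorted 72 h later into GFP+ and GFP− bins, three replicates per tile. The Rosace log2 enrichment (GFP+ vs GFP−) was converted per tile to a normalized function score with synonymous variants centered at 0 and nonsense variants (codons 1-471) at -1; low-abundance variants were removed.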

Row | Variant | 8OG:A repair function score
1 | MRKPRAAVGSGHRKQAASQEGRQKHAKNNSQAKPSACDGLARQPEEVVLQASVSSYHLFRDVAEVTAFRGSLLSWYDQEKRDLPWRRRAEDEMDLDRRAYAVWVSEVMLQQTQVATVCNYYTGWMQKWPTLQDLASASLEEVNQLWAGLGYYSRGRRLQEGARKVVEELGGHMPRTAETLQQLLPGVGRYTAGAIASIAFGQATGVVDGNVARVLCRVRAIGADPSSTLVSQQLWGLAQQLVDPARPGDFNQAAMELGATVCTPQRPLCSQCPVESLCRARQRVEQEQLLASGSLSGSPDVEECAPNTGQCHLCLPPSEPWDQTLGVVNFPRKASRKPPREESSATCVLEQPGALGAQILLVQRPNSGLLAGLWEFPSVTWEPSEQLQRKALLQELQRWAGPLPATHLRHLGEVVHTFSHIKLTYQVYGLALEGQTPVTTVPPGARWLTQEEFHTAAVSTAMKKVFRVYQGQQPGTCMGSKRSQVSSPCSRKKPRMGQQVLDNFFRSHISTDAHSLNSAAQ [I118C] | 0.0146
2 | MRKPRAAVGSGHRKQAASQEGRQKHAKNNSQAKPSACDGLARQPEEVVLQASVSSYHLFRDVAEVTAFRGSLLSWYDQEKRDLPWRRRAEDEMDLDRRAYAVWVSEVMLQQTQVATVGNYYTGWMQKWPTLQDLASASLEEVNQLWAGLGYYSRGRRLQEGARKVVEELGGHMPRTAETLQQLLPGVGRYTAGAIASIAFGQATGVVDGNVARVLCRVRAIGADPSSTLVSQQLWGLAQQLVDPARPGDFNQAAMELGATVCTPQRPLCSQCPVESLCRARQRVEQEQLLASGSLSGSPDVEECAPNTGQCHLCLPPSEPWDQTLGVVNFPRKASRKPPREESSATCVLEQPGALGAQILLVQRPNSGLLAGLWEFPSVTWEPSEQLQRKALLQELQRWAGPLPATHLRHLGEVVHTFSHIKLTYQVYGLALEGQTPVTTVPPGARWLTQEEFHTAAVSTAMKKVFRVYQGQQPGTCMGSKRSQVSSPCSRKKPRMGQQVLDNFFRSHISTDAHSLNSAAQ [I118G] | -0.107
3 | MRKPRAAVGSGHRKQAASQEGRQKHAKNNSQAKPSACDGLARQPEEVVLQASVSSYHLFRDVAEVTAFRGSLLSWYDQEKRDLPWRRRAEDEMDLDRRAYAVWVSEVMLQQTQVATVDNYYTGWMQKWPTLQDLASASLEEVNQLWAGLGYYSRGRRLQEGARKVVEELGGHMPRTAETLQQLLPGVGRYTAGAIASIAFGQATGVVDGNVARVLCRVRAIGADPSSTLVSQQLWGLAQQLVDPARPGDFNQAAMELGATVCTPQRPLCSQCPVESLCRARQRVEQEQLLASGSLSGSPDVEECAPNTGQCHLCLPPSEPWDQTLGVVNFPRKASRKPPREESSATCVLEQPGALGAQILLVQRPNSGLLAGLWEFPSVTWEPSEQLQRKALLQELQRWAGPLPATHLRHLGEVVHTFSHIKLTYQVYGLALEGQTPVTTVPPGARWLTQEEFHTAAVSTAMKKVFRVYQGQQPGTCMGSKRSQVSSPCSRKKPRMGQQVLDNFFRSHISTDAHSLNSAAQ [I118D] | -0.182
4 | MRKPRAAVGSGHRKQAASQEGRQKHAKNNSQAKPSACDGLARQPEEVVLQASVSSYHLFRDVAEVTAFRGSLLSWYDQEKRDLPWRRRAEDEMDLDRRAYAVWVSEVMLQQTQVATVENYYTGWMQKWPTLQDLASASLEEVNQLWAGLGYYSRGRRLQEGARKVVEELGGHMPRTAETLQQLLPGVGRYTAGAIASIAFGQATGVVDGNVARVLCRVRAIGADPSSTLVSQQLWGLAQQLVDPARPGDFNQAAMELGATVCTPQRPLCSQCPVESLCRARQRVEQEQLLASGSLSGSPDVEECAPNTGQCHLCLPPSEPWDQTLGVVNFPRKASRKPPREESSATCVLEQPGALGAQILLVQRPNSGLLAGLWEFPSVTWEPSEQLQRKALLQELQRWAGPLPATHLRHLGEVVHTFSHIKLTYQVYGLALEGQTPVTTVPPGARWLTQEEFHTAAVSTAMKKVFRVYQGQQPGTCMGSKRSQVSSPCSRKKPRMGQQVLDNFFRSHISTDAHSLNSAAQ [I118E] | -0.0341
5 | MRKPRAAVGSGHRKQAASQEGRQKHAKNNSQAKPSACDGLARQPEEVVLQASVSSYHLFRDVAEVTAFRGSLLSWYDQEKRDLPWRRRAEDEMDLDRRAYAVWVSEVMLQQTQVATVANYYTGWMQKWPTLQDLASASLEEVNQLWAGLGYYSRGRRLQEGARKVVEELGGHMPRTAETLQQLLPGVGRYTAGAIASIAFGQATGVVDGNVARVLCRVRAIGADPSSTLVSQQLWGLAQQLVDPARPGDFNQAAMELGATVCTPQRPLCSQCPVESLCRARQRVEQEQLLASGSLSGSPDVEECAPNTGQCHLCLPPSEPWDQTLGVVNFPRKASRKPPREESSATCVLEQPGALGAQILLVQRPNSGLLAGLWEFPSVTWEPSEQLQRKALLQELQRWAGPLPATHLRHLGEVVHTFSHIKLTYQVYGLALEGQTPVTTVPPGARWLTQEEFHTAAVSTAMKKVFRVYQGQQPGTCMGSKRSQVSSPCSRKKPRMGQQVLDNFFRSHISTDAHSLNSAAQ [I118A] | -0.0372
6 | MRKPRAAVGSGHRKQAASQEGRQKHAKNNSQAKPSACDGLARQPEEVVLQASVSSYHLFRDVAEVTAFRGSLLSWYDQEKRDLPWRRRAEDEMDLDRRAYAVWVSEVMLQQTQVATVFNYYTGWMQKWPTLQDLASASLEEVNQLWAGLGYYSRGRRLQEGARKVVEELGGHMPRTAETLQQLLPGVGRYTAGAIASIAFGQATGVVDGNVARVLCRVRAIGADPSSTLVSQQLWGLAQQLVDPARPGDFNQAAMELGATVCTPQRPLCSQCPVESLCRARQRVEQEQLLASGSLSGSPDVEECAPNTGQCHLCLPPSEPWDQTLGVVNFPRKASRKPPREESSATCVLEQPGALGAQILLVQRPNSGLLAGLWEFPSVTWEPSEQLQRKALLQELQRWAGPLPATHLRHLGEVVHTFSHIKLTYQVYGLALEGQTPVTTVPPGARWLTQEEFHTAAVSTAMKKVFRVYQGQQPGTCMGSKRSQVSSPCSRKKPRMGQQVLDNFFRSHISTDAHSLNSAAQ [I118F] | -0.3
7 | MRKPRAAVGSGHRKQAASQEGRQKHAKNNSQAKPSACDGLARQPEEVVLQASVSSYHLFRDVAEVTAFRGSLLSWYDQEKRDLPWRRRAEDEMDLDRRAYAVWVSEVMLQQTQVATYINYYTGWMQKWPTLQDLASASLEEVNQLWAGLGYYSRGRRLQEGARKVVEELGGHMPRTAETLQQLLPGVGRYTAGAIASIAFGQATGVVDGNVARVLCRVRAIGADPSSTLVSQQLWGLAQQLVDPARPGDFNQAAMELGATVCTPQRPLCSQCPVESLCRARQRVEQEQLLASGSLSGSPDVEECAPNTGQCHLCLPPSEPWDQTLGVVNFPRKASRKPPREESSATCVLEQPGALGAQILLVQRPNSGLLAGLWEFPSVTWEPSEQLQRKALLQELQRWAGPLPATHLRHLGEVVHTFSHIKLTYQVYGLALEGQTPVTTVPPGARWLTQEEFHTAAVSTAMKKVFRVYQGQQPGTCMGSKRSQVSSPCSRKKPRMGQQVLDNFFRSHISTDAHSLNSAAQ [V117Y] | -1.28
8 | MRKPRAAVGSGHRKQAASQEGRQKHAKNNSQAKPSACDGLARQPEEVVLQASVSSYHLFRDVAEVTAFRGSLLSWYDQEKRDLPWRRRAEDEMDLDRRAYAVWVSEVMLQQTQVATRINYYTGWMQKWPTLQDLASASLEEVNQLWAGLGYYSRGRRLQEGARKVVEELGGHMPRTAETLQQLLPGVGRYTAGAIASIAFGQATGVVDGNVARVLCRVRAIGADPSSTLVSQQLWGLAQQLVDPARPGDFNQAAMELGATVCTPQRPLCSQCPVESLCRARQRVEQEQLLASGSLSGSPDVEECAPNTGQCHLCLPPSEPWDQTLGVVNFPRKASRKPPREESSATCVLEQPGALGAQILLVQRPNSGLLAGLWEFPSVTWEPSEQLQRKALLQELQRWAGPLPATHLRHLGEVVHTFSHIKLTYQVYGLALEGQTPVTTVPPGARWLTQEEFHTAAVSTAMKKVFRVYQGQQPGTCMGSKRSQVSSPCSRKKPRMGQQVLDNFFRSHISTDAHSLNSAAQ [V117R] | -1.16
9 | MRKPRAAVGSGHRKQAASQEGRQKHAKNNSQAKPSACDGLARQPEEVVLQASVSSYHLFRDVAEVTAFRGSLLSWYDQEKRDLPWRRRAEDEMDLDRRAYAVWVSEVMLQQTQVATTINYYTGWMQKWPTLQDLASASLEEVNQLWAGLGYYSRGRRLQEGARKVVEELGGHMPRTAETLQQLLPGVGRYTAGAIASIAFGQATGVVDGNVARVLCRVRAIGADPSSTLVSQQLWGLAQQLVDPARPGDFNQAAMELGATVCTPQRPLCSQCPVESLCRARQRVEQEQLLASGSLSGSPDVEECAPNTGQCHLCLPPSEPWDQTLGVVNFPRKASRKPPREESSATCVLEQPGALGAQILLVQRPNSGLLAGLWEFPSVTWEPSEQLQRKALLQELQRWAGPLPATHLRHLGEVVHTFSHIKLTYQVYGLALEGQTPVTTVPPGARWLTQEEFHTAAVSTAMKKVFRVYQGQQPGTCMGSKRSQVSSPCSRKKPRMGQQVLDNFFRSHISTDAHSLNSAAQ [V117T] | 0.0387
10 | MRKPRAAVGSGHRKQAASQEGRQKHAKNNSQAKPSACDGLARQPEEVVLQASVSSYHLFRDVAEVTAFRGSLLSWYDQEKRDLPWRRRAEDEMDLDRRAYAVWVSEVMLQQTQVATWINYYTGWMQKWPTLQDLASASLEEVNQLWAGLGYYSRGRRLQEGARKVVEELGGHMPRTAETLQQLLPGVGRYTAGAIASIAFGQATGVVDGNVARVLCRVRAIGADPSSTLVSQQLWGLAQQLVDPARPGDFNQAAMELGATVCTPQRPLCSQCPVESLCRARQRVEQEQLLASGSLSGSPDVEECAPNTGQCHLCLPPSEPWDQTLGVVNFPRKASRKPPREESSATCVLEQPGALGAQILLVQRPNSGLLAGLWEFPSVTWEPSEQLQRKALLQELQRWAGPLPATHLRHLGEVVHTFSHIKLTYQVYGLALEGQTPVTTVPPGARWLTQEEFHTAAVSTAMKKVFRVYQGQQPGTCMGSKRSQVSSPCSRKKPRMGQQVLDNFFRSHISTDAHSLNSAAQ [V117W] | -0.737
11 | MRKPRAAVGSGHRKQAASQEGRQKHAKNNSQAKPSACDGLARQPEEVVLQASVSSYHLFRDVAEVTAFRGSLLSWYDQEKRDLPWRRRAEDEMDLDRRAYAVWVSEVMLQQTQVATSINYYTGWMQKWPTLQDLASASLEEVNQLWAGLGYYSRGRRLQEGARKVVEELGGHMPRTAETLQQLLPGVGRYTAGAIASIAFGQATGVVDGNVARVLCRVRAIGADPSSTLVSQQLWGLAQQLVDPARPGDFNQAAMELGATVCTPQRPLCSQCPVESLCRARQRVEQEQLLASGSLSGSPDVEECAPNTGQCHLCLPPSEPWDQTLGVVNFPRKASRKPPREESSATCVLEQPGALGAQILLVQRPNSGLLAGLWEFPSVTWEPSEQLQRKALLQELQRWAGPLPATHLRHLGEVVHTFSHIKLTYQVYGLALEGQTPVTTVPPGARWLTQEEFHTAAVSTAMKKVFRVYQGQQPGTCMGSKRSQVSSPCSRKKPRMGQQVLDNFFRSHISTDAHSLNSAAQ [V117S] | -0.427
12 | MRKPRAAVGSGHRKQAASQEGRQKHAKNNSQAKPSACDGLARQPEEVVLQASVSSYHLFRDVAEVTAFRGSLLSWYDQEKRDLPWRRRAEDEMDLDRRAYAVWVSEVMLQQTQVATQINYYTGWMQKWPTLQDLASASLEEVNQLWAGLGYYSRGRRLQEGARKVVEELGGHMPRTAETLQQLLPGVGRYTAGAIASIAFGQATGVVDGNVARVLCRVRAIGADPSSTLVSQQLWGLAQQLVDPARPGDFNQAAMELGATVCTPQRPLCSQCPVESLCRARQRVEQEQLLASGSLSGSPDVEECAPNTGQCHLCLPPSEPWDQTLGVVNFPRKASRKPPREESSATCVLEQPGALGAQILLVQRPNSGLLAGLWEFPSVTWEPSEQLQRKALLQELQRWAGPLPATHLRHLGEVVHTFSHIKLTYQVYGLALEGQTPVTTVPPGARWLTQEEFHTAAVSTAMKKVFRVYQGQQPGTCMGSKRSQVSSPCSRKKPRMGQQVLDNFFRSHISTDAHSLNSAAQ [V117Q] | -1.26
